B1: aptamer 70.28 (ssRNA)
RNA: AGCUCGAGCUCGAAUUCACAAGAACCGGACCGGGUGAGAACCGAGACAAACACCCACCAAGAGGGCCCGGAUCCGUC
B2: aptamer 70.28t34 (ssRNA)
RNA: AGCUCGAGCUCGAAUUCGGGAACCGGACGGGUGAGAACCGAGACAAACACCGGGCCCGGAUCCGUC
B3: aptamer 70.15 (ssRNA)
RNA: AGCUCGAGCUCGAAUUCCCUACGAACCCAGGAGAUAAGGGGGAAAACUCUGGAAAACGGGCCCGGAUCCGUC
B4: aptamer 70.8,13 (ssRNA)
RNA: AGCUCGAGCUCGAAUUCAAAGAGAUCUGGCAGUGUCACAACCAGGAAAAAGACACGACGAACGGGCCCGGAUCCGUC
B5: aptamer 80.55,65 (ssRNA)
RNA: AGCUCGAGCUCGAAUUCAUUUAAUUCCAUAAUGGCUCACCACAAGGGGAACGUUGAUGAAAUAGGGCCCGGAUCCGUC
B6: aptamer 1.1 (ssRNA)
RNA: AGCUCGAGCUCGAAUUCGGGAGAUUCCGUUUUCAGUCCGGGAAAAACUGAAGGGCCCGGAUCCGUC

What was measured:
[1] = molecular target: T1, HIV-1 reverse transcriptase (RT) (HIV-1, UniProt P04585;P04585 P04585:588-1147,P04585:588-1027); test: inhibition; RT activity, 80 mM KCl, 6 mM MgCl2, pH 8.0, 37 C
Method: (§1) In vitro RT inhibition. To determine the IC₅₀ values, self-cleaved RNA aptamers were gel purified and eluted in 500 mM NH₄OAc/1 mM EDTA/0.2% SDS. RNA was then treated with phenol/chloroform and ethanol precipitated. RT reactions (50 μl) contained 80 mM KCl, 50 mM Tris-Cl (pH 8.0), 6 mM MgCl₂, 1 mM dithiothreitol (DTT), 0.1 mg/ml BSA, 10 μM […], 25 μM each of the remaining three dNTPs, and a range of concentrations of RNA aptamers (1 nM to 1000 nM). Reactions were incubated at 37° C. for 15 min. Reactions initiated by the addition of 25 ng of purified HIV-1 RT and at the end of the reaction, aliquots were spotted onto DE81 filter paper and washed with 2×SSC (30 mM Sodium Citrate, 300 mM NaCl pH 7.0). Dried filters were then counted and individual IC₅₀s were determined by fitting results to a dose-response curve using nonlinear regression (GraphPad Software Inc., San Diego, Calif.).
(§2) Next, the ability of each of the 10 selected RNA aptamers to inhibit recombinant purified HIV-1 RT was evaluated in vitro and the degree of inhibition (IC₅₀) by each aptamer was determined. In vitro transcription of the primary transcripts with T3 RNA polymerase was followed by gel purification of the processed aptamers. The IC₅₀s calculated ranged from 89 nM to >1000 nM (Table 1). Six RNA aptamers were selected for further studies, to test their effectiveness in inhibiting HIV-1 replication.

[2] = molecular target: T1, HIV-1 reverse transcriptase (RT); test: EMSA; 50 mM KCl, 25 mM NaCl, 5% glycerol, BSA, 25 C
Method: (§3) Radiolabeled, processed RNA aptamers were gel purified and eluted in 500 mM NH₄OAc/1 mM EDTA/0.2% SDS. RNA was then treated with phenouchloroform and ethanol precipitated. Electrophoretic mobility shift assays were performed by incubating 10 fmol purified RNA aptamer with increasing amounts of purified HIV-1 RT at 25° C. in 10 μl of buffer containing 50 mM KCl, 25 mM NaCl, 5% glycerol, 300 μg/ml BSA. The reaction products were electrophoresed on native polyacrylamide gels. Dried gels were exposed to a phosphorimager screen and Kd calculated by using the ImageQuant software. To determine the binding strengths, the percentage of band shift observed with increasing concentrations of RT (1 nM to 500 nM), with respect to the no protein control lane, was first determined. The Kd values were determined by fitting data from three independent experiments to a dose response curve using nonlinear regression (Cann 1996) (GraphPad Software Inc.).
Therefore, the ability of each of the 10 selected RNA aptamers to bind recombinant purified HIV-1 RT was evaluated in vitro via an electrophoretic mobility shift assay (EMSA) and the dissociation constants determined for each individual aptamer in its processed form. In vitro transcription of the primary transcripts, with T3 RNA polymerase was followed by gel purification of the processed aptamers. The aptamer RNAs were incubated with increasing concentrations of purified recombinant HIV-1 RT, the reactions were resolved on a non-denaturing polyacrylamide gel (FIG. 3) and Kd values calculated based on the degree of band shift caused by the formation of RNA-protein complexes (see Methods section).

[3] = molecular target: T1, HIV-1 reverse transcriptase (RT); test: EMSA; 50 mM KCl, 25 mM NaCl, 5% glycerol, BSA, 25 C; processed RNA with flanks; conditions: pseudoknot-like potential stated for some aptamers
Method: as §3
Therefore, the ability of each of the 10 selected RNA aptamers to bind recombinant purified HIV-1 RT was evaluated in vitro via an electrophoretic mobility shift assay (EMSA) and the dissociation constants determined for each individual aptamer in its processed form. In vitro transcription of the primary transcripts, with T3 RNA polymerase was followed by gel purification of the processed aptamers. […]

[4] = molecular target: T1, HIV-1 reverse transcriptase (RT); test: inhibition; RT activity, 80 mM KCl, 50 mM Tris pH 8.0, 6 mM MgCl2, 37 C; conditions: pseudoknot-like potential stated for some aptamers
Method: as §1, §2

| Binder | IC50 [1] [nM] | Kd [2] [nM] | other results |
| --- | --- | --- | --- |
| B1 |  |  | IC50 ([1]; pseudoknot): 254 nM; Kd ([2]; pseudoknot): 201 nM |
| B2 | 327 | 219 |  |
| B3 | 159 | 63 |  |
| B4 |  |  | Kd [3]: 27 nM; IC50 [4]: 89 nM |
| B5 | 143 | 129 |  |
| B6 | 607 | 270 |  |
